In US20050202403A1:
Values joined by “and” are separate entries in the source; they are usually repeats but may differ in a detail not shown here. Equal entries are not always repeated.

molecular target: yeast Gβγ (STE4/STE18) (Saccharomyces cerevisiae) (UniProt P18851); assay: cell-based or functional assay
Sequence (P18851 whole entry, chain 1 of 2): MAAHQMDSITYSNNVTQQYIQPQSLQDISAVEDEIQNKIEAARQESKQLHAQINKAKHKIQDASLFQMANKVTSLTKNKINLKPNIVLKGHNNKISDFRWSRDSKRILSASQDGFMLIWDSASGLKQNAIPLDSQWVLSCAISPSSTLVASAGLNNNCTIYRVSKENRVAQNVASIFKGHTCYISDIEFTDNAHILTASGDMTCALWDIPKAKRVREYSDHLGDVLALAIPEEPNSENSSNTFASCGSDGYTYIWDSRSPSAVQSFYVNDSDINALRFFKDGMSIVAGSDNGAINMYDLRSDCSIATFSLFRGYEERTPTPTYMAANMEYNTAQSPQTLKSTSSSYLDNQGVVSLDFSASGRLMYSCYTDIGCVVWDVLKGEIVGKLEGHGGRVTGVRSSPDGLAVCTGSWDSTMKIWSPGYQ
Sequence (P18852 1-107, chain 2 of 2, further chain): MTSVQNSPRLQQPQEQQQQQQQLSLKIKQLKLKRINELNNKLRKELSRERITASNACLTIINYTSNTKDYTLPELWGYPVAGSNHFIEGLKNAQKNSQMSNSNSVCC

Sequence of GPA1-Gα12 chimera (Cp3435) (P08539 1-41, change not shown): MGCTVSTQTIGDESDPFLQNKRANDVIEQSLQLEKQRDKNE
Sequence of GPA1-Gα12 S288P chimera (Cp3822) (P08539 1-41, stated change not applied): as the sequence (P08539 1-41, change not shown) above
Sequence of rat Gαs, wild type (Cp3098) (P63095 2-394): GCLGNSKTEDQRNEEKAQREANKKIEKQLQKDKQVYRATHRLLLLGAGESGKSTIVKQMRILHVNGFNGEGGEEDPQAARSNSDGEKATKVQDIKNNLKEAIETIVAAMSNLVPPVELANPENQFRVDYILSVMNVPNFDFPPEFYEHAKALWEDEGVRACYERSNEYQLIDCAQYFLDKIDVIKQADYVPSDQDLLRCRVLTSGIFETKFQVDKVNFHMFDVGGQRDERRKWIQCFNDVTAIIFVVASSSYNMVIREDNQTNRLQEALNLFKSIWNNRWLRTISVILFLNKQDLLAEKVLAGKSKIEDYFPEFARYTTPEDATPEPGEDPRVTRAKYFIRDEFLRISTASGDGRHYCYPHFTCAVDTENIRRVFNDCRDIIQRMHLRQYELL
Sequence of GPA1(41)-Gαi2-Gαo(40) (P08539 1-41): as the sequence (P08539 1-41, change not shown) above
Sequence of GPA1(41)-Gαi1 (P08539 1-41): as the sequence (P08539 1-41, change not shown) above
Sequence of GPA1(20)-Gα16 (P08539 1-20): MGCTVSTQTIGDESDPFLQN
Sequence of Gpal(1-43)-Gαi2(36-242)-GαoB(243-354) S280P chimera (Cp3635) (P08539 1-43, stated change not applied): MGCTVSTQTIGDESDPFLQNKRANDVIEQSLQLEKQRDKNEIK

Substance	min[AT]i [mM]	growth of gpa1 fus1-HIS3 yeast on aminotriazole	growth of the gpal fusl-HIS3 strain on 3-AT [mM]	growth of a gpal fusl-HIS3 colony on media lacking histidine with 3-AT [mM]
GPA1(20)-Gα16 (from UniProt P08539 1-20)	1	–	–	–
GPA1(20)-Gα16(S-P) (from UniProt P08539 1-20)	0.5	–	–	–
GPA1(41)-Gαi2 (from UniProt P08539 1-41; P04899 36-355)	0.5	–	–	–
GPA1(41)-Gαi2-Gαo(40) (from UniProt P08539 1-41)	1	–	–	–
GPA1-Gα12 chimera (Cp3435) (from UniProt P08539 1-41)	–	2.5 mM and 1 mM	–	–
Gpal(1-43)-Gαi2(36-242)-GαoB(243-354) S280P chimera (Cp3635) (from UniProt P08539 1-43)	1	–	–	–
rat Gαs S286P (from UniProt P63095 2-394)	–	–	0.2	–
rat Gαs, wild type (Cp3098) (from UniProt P63095 2-394)	–	–	–	1

The next lines start with the values.

min[AT]i [mM]	growth of gpa1 fus1-HIS3 yeast on aminotriazole	growth of the gpal fusl-HIS3 strain on 3-AT [mM]	growth of a gpal fusl-HIS3 colony on media lacking histidine with 3-AT [mM]	Substance
0.5	–	–	–	GPA1(41)-Gαi1 (from UniProt P08539 1-41)
0.5	–	–	–	GPA1(41)-Gαi3 (from UniProt P08539 1-41; P08754 36-354)
1	0.5 mM	–	–	GPA1-Gα12 S288P chimera (Cp3822) (from UniProt P08539 1-41)
1	–	–	–	Gpal(1-43)-Gα16(45-374) S270P chimera (Cp3699) (from UniProt P08539 1-43; P30679 45-374)
1.5	–	–	–	Gαi1
–	–	0.2	–	rat Gαs D229V (from UniProt P63095 2-394)
–	–	0.2	–	rat Gαs E10K (from UniProt P63095 2-394)
–	–	0.2	–	rat Gαs N254D (from UniProt P63095 2-394)

molecular target: human adenosine A2a receptor (human) (UniProt P29274); assay: cell-based or functional assay
Sequence (P29274 whole entry): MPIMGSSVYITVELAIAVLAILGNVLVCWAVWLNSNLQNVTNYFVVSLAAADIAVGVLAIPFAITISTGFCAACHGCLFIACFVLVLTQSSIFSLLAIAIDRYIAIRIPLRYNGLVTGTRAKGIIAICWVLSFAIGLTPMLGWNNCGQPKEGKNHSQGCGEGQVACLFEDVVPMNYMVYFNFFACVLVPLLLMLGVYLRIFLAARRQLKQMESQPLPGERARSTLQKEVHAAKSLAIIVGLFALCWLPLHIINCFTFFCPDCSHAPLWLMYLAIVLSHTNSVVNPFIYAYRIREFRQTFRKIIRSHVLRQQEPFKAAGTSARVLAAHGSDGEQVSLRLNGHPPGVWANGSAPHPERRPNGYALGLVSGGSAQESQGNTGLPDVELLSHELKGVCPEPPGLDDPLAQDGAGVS

Substance	fusl-lacZ reporter, β-galactosidase units on addition of NECA [fold]
rat Gαs E10K D229S double mutant (from UniProt P63095 2-394)	10
rat Gαs S286P (from UniProt P63095 2-394)	10

The next lines start with the values.

fusl-lacZ reporter, β-galactosidase units on addition of NECA [fold]	Substance
10	rat Gαs D229S (Cp3390) (from UniProt P63095 2-394)
10	rat Gαs E10K (from UniProt P63095 2-394)
10	rat Gαs N254D (from UniProt P63095 2-394)
